Assays:
[1] = target: T1, RC3H1-N1 (RING+ROQ) (Homo sapiens, UniProt Q5TC82 2-399); test: EMSA; EMSA: 20 mM Tris-HCl pH 7.5, 50 mM KCl, 5 mM MgCl2, 20 uM ZnSO4, 10% glycerol, 2 mM DTT, 0.05 mg/ml BSA, 5 ug/ml heparin; 50 fmol RNA in 20 ul, room temperature
T1 sequence: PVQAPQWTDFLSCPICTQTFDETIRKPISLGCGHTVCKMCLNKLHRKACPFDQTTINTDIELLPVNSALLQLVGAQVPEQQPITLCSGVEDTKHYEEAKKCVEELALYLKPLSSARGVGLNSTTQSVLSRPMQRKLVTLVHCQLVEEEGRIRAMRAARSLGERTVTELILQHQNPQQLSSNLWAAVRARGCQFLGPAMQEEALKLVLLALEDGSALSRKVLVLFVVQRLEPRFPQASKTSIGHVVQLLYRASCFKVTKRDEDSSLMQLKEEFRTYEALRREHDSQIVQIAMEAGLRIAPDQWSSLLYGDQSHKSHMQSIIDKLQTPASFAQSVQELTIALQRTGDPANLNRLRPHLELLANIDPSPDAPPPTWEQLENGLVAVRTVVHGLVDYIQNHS

[2] = target: T2, RC3H1-N2 (RING+ROQ+CCCH Zn finger) (Homo sapiens, UniProt Q5TC82 2-452); test: EMSA; complex formation seemed independent of the Zn finger; EMSA: 20 mM Tris-HCl pH 7.5, 50 mM KCl, 5 mM MgCl2, 20 uM ZnSO4, 10% glycerol, 2 mM DTT, 0.05 mg/ml BSA, 5 ug/ml heparin; 50 fmol RNA in 20 ul, room temperature
T2 sequence: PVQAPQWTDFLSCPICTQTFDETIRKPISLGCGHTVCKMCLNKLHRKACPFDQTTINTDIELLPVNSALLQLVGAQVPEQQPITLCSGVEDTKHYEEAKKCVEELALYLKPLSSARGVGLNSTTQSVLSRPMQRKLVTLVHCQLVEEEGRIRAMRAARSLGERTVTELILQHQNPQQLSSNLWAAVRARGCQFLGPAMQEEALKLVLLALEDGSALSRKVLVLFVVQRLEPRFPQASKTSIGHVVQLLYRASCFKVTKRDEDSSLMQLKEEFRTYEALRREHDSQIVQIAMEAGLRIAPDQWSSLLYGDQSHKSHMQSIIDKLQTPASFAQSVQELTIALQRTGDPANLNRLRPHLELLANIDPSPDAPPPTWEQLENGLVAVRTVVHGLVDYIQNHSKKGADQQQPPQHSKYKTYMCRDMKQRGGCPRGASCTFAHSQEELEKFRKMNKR

[3] = target: T2, RC3H1-N2 (RING+ROQ+CCCH Zn finger); test: EMSA; EMSA: 20 mM Tris-HCl pH 7.5, 50 mM KCl, 5 mM MgCl2, 20 uM ZnSO4, 10% glycerol, 2 mM DTT, 0.05 mg/ml BSA, 5 ug/ml heparin; 50 fmol RNA in 20 ul, room temperature
[4] = target: T2, RC3H1-N2 (RING+ROQ+CCCH Zn finger); test: EMSA; higher affinity than the 21-nt hairpin; EMSA: 20 mM Tris-HCl pH 7.5, 50 mM KCl, 5 mM MgCl2, 20 uM ZnSO4, 10% glycerol, 2 mM DTT, 0.05 mg/ml BSA, 5 ug/ml heparin; 50 fmol RNA in 20 ul, room temperature
[5] = target: T2, RC3H1-N2 (RING+ROQ+CCCH Zn finger); test: EMSA; virtually unaffected vs WT; EMSA: 20 mM Tris-HCl pH 7.5, 50 mM KCl, 5 mM MgCl2, 20 uM ZnSO4, 10% glycerol, 2 mM DTT, 0.05 mg/ml BSA, 5 ug/ml heparin; 50 fmol RNA in 20 ul, room temperature

**Q.** Does AUUUCUGUGAAAU (structured_RNA) [ICOS (13 nt) CDE-like stem-loop] bind [1]?
**A.** binds

**Q.** Does AUUUCUGUGAAAU (structured_RNA) [ICOS (13 nt) CDE-like stem-loop] bind [2]?
**A.** binds

**Q.** Does CCCUUACAUUAUGUAUGAGGG (structured_RNA) [A20 (21 nt) stem-loop WT] bind [3]?
**A.** binds

**Q.** Does AUAUAUAAUAUACCCUUACAUUAUGUAUGAGGGAUUU (structured_RNA) [A20 (37 nt) ARE-stem-loop] bind [4]?
**A.** binds

**Q.** Does CCCUUACAUAAUGUAUGAGGG (structured_RNA) [Mut1 (21 nt)] bind [5]?
**A.** binds

**Q.** Does CCUCCCCCCCUGCCCCCCAGC (ssRNA) [Mut3 (21 nt) control] bind [3]?
**A.** no binding

From paper PMC4510711
